# B1: recombinant human glutamine:fructose-6-phosphate amidotransferase 2 with a C-terminal 6xHisTag (rhGFAT2-his) (enzyme, UniProt O94808 2-682, looked up)
# chain: CGIFAYMNYRVPRTRKEIFETLIKGLQRLEYRGYDSAGVAIDGNNHEVKERHIQLVKKRGKVKALDEELYKQDSMDLKVEFETHFGIAHTRWATHGVPSAVNSHPQRSDKGNEFVVIHNGIITNYKDLRKFLESKGYEFESETDTETIAKLIKYVFDNRETEDITFSTLVERVIQQLEGAFALVFKSVHYPGEAVATRRGSPLLIGVRSKYKLSTEQIPILYRTCTLENVKNICKTRMKRLDSSACLHAVGDKAVEFFFASDASAIIEHTNRVIFLEDDDIAAVADGKLSIHRVKRSASDDPSRAIQTLQMELQQIMKGNFSAFMQKEIFEQPESVFNTMRGRVNFETNTVLLGGLKDHLKEIRRCRRLIVIGCGTSYHAAVATRQVLEELTELPVMVELASDFLDRNTPVFRDDVCFFISQSGETADTLLALRYCKDRGALTVGVTNTVGSSISRETDCGVHINAGPEIGVASTKAYTSQFISLVMFGLMMSEDRISLQNRRQEIIRGLRSLPELIKEVLSLEEKIHDLALELYTQRSLLVMGRGYNYATCLEGALKIKEITYMHSEGILAGELKHGPLALIDKQMPVIMVIMKDPCFAKCQNALQQVTARQGRPIILCSKDDTESSKFAYKTIELPHTVDCLQGILSVIPLQLLSFHLAVLRGYDVDFPRNLAKSVTVE
# notes: human glutamine:fructose-6-phosphate amidotransferase 2 (hGFAT2), product of the gfpt2 gene; The His tag comes from pET23a after the NotI site; Mostly a tetramer by SEC, with higher oligomers up to octamers; also called rhGFAT-his; source: E. coli Codon plus, soluble fraction, purified (Ni-NTA HisTrap column); not shown: His6, C-terminal, kept
# How the values were obtained:
# [1] = biological target: the molecule itself; experiment: SEC; Superdex 200 column, 20 mM Tris-HCl pH 7.5, 150 mM NaCl, 1 mM DTT, 0.5% NP-40, 1 ml/min; mass estimated from standard proteins
# [2] = biological target: the molecule itself; experiment: cross-linking; 3, 5 or 10 ug of purified rhGFAT2-his in PBS with 1 mM EGS, 30 min, room temperature; stopped with 30 mM Tris-HCl pH 8.0; gradient SDS-PAGE, Coomassie staining
protein,measurement,setting,value
B1,stoichiometry N,[1],≤ 8
same,stoichiometry N,[2],4

# Source: article PMC7948480, “Enzymatic and structural properties of human glutamine:fructose-6-phosphate amidotransferase 2 (hGFAT2)” (The Journal of Biological Chemistry, 2020)
